Experimental data as given in patent US8329178B2.

Tests used:
Test in all cases: FACS, 293T cells expressing CXCR4 variants
[1] = target: CXCR2/CXCR4 chimera 2444b (human) (UniProt P61073)
ΔN25-CXCR4 (human) = ΔN25-CXCR4 (human) (UniProt P61073)
[2] = target: CXCR2/CXCR4 chimera 2442 (human) (UniProt P61073)
ΔN31-CXCR4 (human) = ΔN31-CXCR4 (human) (UniProt P61073)
ΔN31-CXCR4 (human), sequence (P61073 32-352, stated change not applied): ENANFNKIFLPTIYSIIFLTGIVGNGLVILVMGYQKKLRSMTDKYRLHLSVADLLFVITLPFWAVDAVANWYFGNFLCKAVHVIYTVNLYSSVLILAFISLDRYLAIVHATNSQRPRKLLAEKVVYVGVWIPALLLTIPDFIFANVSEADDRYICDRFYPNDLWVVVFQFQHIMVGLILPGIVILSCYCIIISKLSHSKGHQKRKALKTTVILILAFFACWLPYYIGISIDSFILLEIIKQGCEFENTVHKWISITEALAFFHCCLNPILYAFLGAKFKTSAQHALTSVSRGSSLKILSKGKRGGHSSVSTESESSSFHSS

ΔN25-CXCR4 (human), sequence (P61073 26-352, stated change not applied): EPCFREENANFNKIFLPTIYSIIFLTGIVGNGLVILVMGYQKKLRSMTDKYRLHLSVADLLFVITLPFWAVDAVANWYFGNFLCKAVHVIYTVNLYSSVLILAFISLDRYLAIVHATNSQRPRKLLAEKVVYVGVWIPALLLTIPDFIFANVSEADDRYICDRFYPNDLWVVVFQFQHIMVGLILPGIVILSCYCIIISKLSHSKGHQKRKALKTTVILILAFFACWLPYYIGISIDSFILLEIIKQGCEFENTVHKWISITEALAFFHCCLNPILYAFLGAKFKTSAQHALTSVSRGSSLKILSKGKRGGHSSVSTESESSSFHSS

B1: 33-IgG1 (antibody, V domains shown)
VH: QVTLKESGGGVVQPGRSLRLSCAASGFTFTNYGLHWVRQAPGKGLEWVAVISHDGTKKYYADSVKGRFTISRDSSENTLYLQMNSLRPEDSALYYCARDGGYCSGGRCYSYGMDVWGQGTTVTVSS
VL: QSVLTQPPSASGTPGQRVTISCSGSRSNIGSNTVNWYQQLPGTAPKLLIYTNNQRPSGVPDRFSGSKSGTSASLAITGLQAEDEADYYCLSFDSSLTSYVFGTGTKVTVLG
For B1, the binding to cells expressing the variant (+%) [1] was 1%, the binding to cells expressing the variant (+%) (ΔN25-CXCR4 (human)) was 13% and the binding to cells expressing the variant (+%) [2] was 1.5%. The binding to cells expressing the variant (+%) (ΔN31-CXCR4 (human)) was 9%.
